Measurements from article PMC11906892.

Legend:
[1] = target: ZER1 (ZYG11BL) (Homo sapiens, UniProt Q7Z7L7 520-766); assay: ITC
[2] = target: ZYG11B (Homo sapiens, UniProt Q9C0D3 445-728); assay: ITC
ZYG11B, sequence (Q9C0D3 445-728): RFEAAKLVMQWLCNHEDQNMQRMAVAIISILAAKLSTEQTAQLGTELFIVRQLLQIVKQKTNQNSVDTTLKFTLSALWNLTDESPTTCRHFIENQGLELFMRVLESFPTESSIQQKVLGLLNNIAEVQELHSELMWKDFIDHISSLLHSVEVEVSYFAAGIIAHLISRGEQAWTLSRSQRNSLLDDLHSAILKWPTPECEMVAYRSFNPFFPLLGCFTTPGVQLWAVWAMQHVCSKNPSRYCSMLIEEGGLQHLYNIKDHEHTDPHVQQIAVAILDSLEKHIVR

ZER1 (ZYG11BL), sequence (Q7Z7L7 520-766): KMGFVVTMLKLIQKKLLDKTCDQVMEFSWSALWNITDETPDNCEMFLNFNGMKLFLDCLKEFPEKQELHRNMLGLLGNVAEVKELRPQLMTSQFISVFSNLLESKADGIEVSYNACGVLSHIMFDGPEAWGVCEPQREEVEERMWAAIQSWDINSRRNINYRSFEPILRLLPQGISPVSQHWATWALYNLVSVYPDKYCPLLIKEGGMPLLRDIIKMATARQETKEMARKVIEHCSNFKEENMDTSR

With TCACCCGGTTGGGGCACACGTCTTGTTGATGGCTGC (ssDNA) [Apt#Z6] the binding result [1] was “no binding” and the Kd [2] was 4.69 ± 2.19 µM.
